Source: patent publication US20140322759
Where a chain is given by its changes, count along the chain named.

Key:
Assay in all cases: EMSA
[1] = molecular target: T1, phi29 DNA polymerase F526L F526L (Bacillus phage phi29) (UniProt P03680); details: SD 24.2; unit not given (μM in assay); pH 7.9, 66 mM K-acetate, 30 C
T1 sequence: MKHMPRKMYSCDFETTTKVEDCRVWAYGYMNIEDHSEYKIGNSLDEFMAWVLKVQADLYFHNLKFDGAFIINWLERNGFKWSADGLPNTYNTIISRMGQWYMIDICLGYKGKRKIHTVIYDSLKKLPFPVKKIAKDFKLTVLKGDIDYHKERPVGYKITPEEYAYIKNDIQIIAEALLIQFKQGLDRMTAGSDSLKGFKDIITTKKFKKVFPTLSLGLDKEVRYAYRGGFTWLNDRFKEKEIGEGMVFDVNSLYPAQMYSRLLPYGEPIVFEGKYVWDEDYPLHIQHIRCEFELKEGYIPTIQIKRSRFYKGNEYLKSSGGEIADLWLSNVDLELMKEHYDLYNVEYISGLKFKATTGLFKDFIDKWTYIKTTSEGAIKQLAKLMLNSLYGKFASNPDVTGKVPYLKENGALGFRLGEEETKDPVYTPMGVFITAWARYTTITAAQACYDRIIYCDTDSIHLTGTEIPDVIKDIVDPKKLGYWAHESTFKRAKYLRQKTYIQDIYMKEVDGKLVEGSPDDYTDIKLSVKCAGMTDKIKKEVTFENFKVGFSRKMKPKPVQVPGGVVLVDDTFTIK

[2] = molecular target: T2, phi29 DNA polymerase K512E K512E (Bacillus phage phi29) (UniProt P03680); details: SD 27.6; unit not given (μM in assay); pH 7.9, 66 mM K-acetate, 30 C
T2 sequence: T1 sequence with K512E, L526F

[3] = molecular target: T3, phi29 DNA polymerase E515A E515A (Bacillus phage phi29) (UniProt P03680); details: SD 56.5; unit not given (μM in assay); pH 7.9, 66 mM K-acetate, 30 C
T3 sequence: T1 sequence with E515A, L526F

[4] = molecular target: T4, phi29 DNA polymerase Mut_4 M8R,V51A,M97T,G197D,E221K (Bacillus phage phi29) (UniProt P03680); details: SD 10.6; unit not given (μM in assay); pH 7.9, 66 mM K-acetate, 30 C
T4 sequence: T1 sequence with M8R, V51A, M97T, G197D, E221K, L526F

GATCACAGTGAGTAC / TCTATTGTACTCACTGTGATC [15-mer/21-mer primer/template]
Kd [1]: 53 µM | Kd [2]: 54 µM | Kd [3]: 97 µM | Kd [4]: 67 µM
